Measurements as given in paper PMC314469, “Protein Interaction Networks by Proteome Peptide Scanning” (PLoS Biology, 2004).

T1: amphyphisin SH3 (AMPH_HUMAN), P49418
T1 chain: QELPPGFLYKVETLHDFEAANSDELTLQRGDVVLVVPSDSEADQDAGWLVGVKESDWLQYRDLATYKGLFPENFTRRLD


Assays:
[1] = target: endophilin SH3 (SH3G2_HUMAN), Q99962; test: SPOT array
[2] = target: T1, amphyphisin SH3 (AMPH_HUMAN), P49418; test: SPOT array

normalised SPOT signal, Boehringer light units (BLU); mean over the file's lines of this peptide [1] | normalised SPOT signal, Boehringer light units (BLU); mean over the file's lines of this peptide [2] | Binder
12400 | 349 | FWQSPKRPPSPIKF [Q9H3T7 733-747]
148 | 1260 | GAFQPGRPLRVVAT [O60560 190-203]
117 | 39.9 | FVTELRRPVAVRAK [Q9NW72 376-389]
59 | 0 | AKINLKRPPTAGSQ [Q9HA08 198-211]
12.8 | 23.8 | FVNEIRRPNGENYA [Q9UBW7 1125-1138]
17300 | 1620 | FVLVPLRPPSPARS [O75055 1510-1524]
122 | 190 | FVYNFIRPVKGKVS [Q9NUW7 10-23]
202 | 957 | GAASISRPTRAVPS [P35568 971-984]
43.1 | 38.2 | FVTELRRPDAVRTK [Q9NQ90 781-794]
13400 | 93.5 | AKLFPGRPPVKKLL [CAD39032 203-217]
4600 | 3820 | FYYRPPRPPKGASK [P46527 86-100]
-0 | 10.5 | GAGQPRRPEAEPGQ [Q96AA2 6283-6296]
18800 | 10100 | FVLRPLRPSRRYST [Q14539 22-35]
224 | 3720 | FVSPPNRPFRSKND [Q07954 3693-3706]
129 | 129 | GAARLGRPGRSSLP [P34925 3-16]
66.2 | 59.5 | GASLFNRPTKLFEP [O75077 489-502]
175 | 53.3 | FYRDLRRPFSAPDA [Q9HB63 378-391]
